# Experimental data taken from the DeepSol protein solubility set.
# Assay: soluble on expression in E. coli; label from the status in PepcDB or PDB records
row,Sequence,soluble on expression in E. coli
1,MSLDWFTVDDSVLRVALVFPLQGSAGIFGPTCELCARLAAEEVNRAGGVLGKELRLLPVDGGAPPREIADRVAALVDLGVVQGVTGWHISSVRQALAPRIAHRVPYVYTALYEGGEHTAGVFLTSETPRDQLRPAMRLLARERGVRRWFVIGNDYVWPRRTARAAHSYARECGGSIGGEVYLPLGTHDFEPVLRRIERSDADAVLMLLVGSDAVRFNRAFAAAGLDGRCLRLSTLMDENMLLASGPAATADLYSTAGFFASLANQDTLDFHGRYAARYGVEAPALGSLGESCYEGVLLLAALIGRAGTLEVSAIGAAADTVSYEGPRGLLRLRGGHVRQRIYLARADGLDFDVVAELDLHSSRPEGHHHHHH,not soluble
2,MRHLSLLLCCLLAWPARAETLVEIPTRPGVALRFLLLEPPGPPRANLILLAGGEGLLKLSAEGELGAGRGNFLVRTRQGWADMGFRVAVVDAPSDMPRGLLGDFRERAEHAADIAAVSDYLRRGAALPVWLAGTSRGTTSAAAVALNRPDAADGLLLTSSIDAGRGSLAGLPLERLAVPVLMIQHRRDECRASRPGNLGPVLDRLRADAPRELMLLDGGGSEGDPCQPWAWHGYNGIERRVLGLAGAWMLAHGRHLEHHHHHH,not soluble
3,SGGPGTKSGEPLCPPLLCNQDKETLTLLIQVPRIQPQSLQGDLNPLWYKLRFSAQDLVYSFFLQFAPENKLSTTEPVISISSNNAVIELAKSPESHGHWREWYYGVNNDSLELQECSNSDQLQGKEERVNEESHLTEKEYIEHCNTPTTDSDSSIAVKALQIDSFGLVTCFQQESLDVSQMILGKSQQPESKMQSEFIKEKSATCSNEEKDNLNESVITEEKETDGDHLSSLLNKTTVHNIPGFDSIKETNMQDGSVQVIKDHVTNCAFSFQNSLLYDLD,soluble
4,MGSDKIHHHHHHMTTTDTRPSPSPLQQDYQRFLLLGSRRAPYTLHVHETGYRSGTINTDALGLRYSHCAGKRFSAAEHGGASRINLLVGGSTALGIGASSDEHTVASHLSMLTGEVWLSLAGCGLNATQELMMFLTHQHRLGQLGHVVVLSGLNSLAHEALCEVLAGTNDPQHAKAYQAFLNSFSEGMQPCAPPRRQSLWRRIGQALTPPVAAPPVSWPLSPPEKRLARAADNIGRTLRQWDRLLADSHATLTFILQPLLPWCRDTLPAGEQAMLTALQQQPANFDRLLEGAFDRQLHSAFFRRIKSQADPVPCYDMNCMLDSSPVFGADLFIDRLHLNDLGNNALAKVITAKLGLAQEKHAQRKVTPIKLV,not soluble
5,MGSDKIHHHHHHMSNFNFDFAENDFGPLAAKMRPTSLEQYFGQSHLIGEGKPLRKAIQAGHIYSMIFWGPPGTGKTTLAEIIAQRINAEVERISAVTSGIKEIREAIDRAKQNRLADRKTILFVDEVHRFNKSQQDAFLPHIEDGTVIFIGATTENPSFELNNALLSRARVYVLKSLTTAEIEQVLQQAVEDPKRGLGKERLILEENLLQVLAEYVNGDARLALNCLELMVDMADETENGKKIDRTLLKEVLGERQARFDKQGDRFYDLISALHKSVRGSAPDAALYWYARILTAGGDPLYVARRLLAIASEDVGNADPRAMQVALAAWDCFSRVGAYEGERAIAQAIIYLSVAPKSNAVYTAFNTAKQQAKDLPDYDVPPHLRNAPTNLMKELGYGTEYRYAHDEPNAYAAGENYFPPELKDTQYYFPTNRGMEIQIKEKLERLREQDKSAVKKRYK,not soluble
6,MGSDKIHHHHHHMMSTIYRHLSTARPALTKYATNAAVKSTTASSEASTLGALQYALSLDEPSHSWTKSQLKEIYHTPLLELTHAAQLQHRKWHDPTKVQLCTLMNIKSGGCSEDCKYCAQSSRNDTGLKAEKMVKVDEVIKEAEEAKRNGSTRFCLGAAWRDMKGRKSAMKRIQEMVTKVNDMGLETCVTLGMVDQDQAKQLKDAGLTAYNHNIDTSREHYSKVITTRTYDDRLQTIKNVQESGIKACTGGILGLGESEDDHIGFIYTLSNMSPHPESLPINRLVAIKGTPMAEELADPKSKKLQFDEILRTIATARIVMPKAIIRLAAGRYTMKETEQFVCFMAGCNSIFTGKKMLTTMCNGWDEDKAMLAKWGLQPMEAFKYDRS,not soluble
7,MGSDKIHHHHHHMKKYSLTPAMLEVCKEYNFFSDVSGFMPLTSENIKEIKIGKKFAYSHQDNNKPTHQKLSKIIFENFLSNIPLNQSAIAYVKKKSYFDFIEPHRNNYFFLRIDLKDFFHSISEDLLKRTLSDYFSSESLSETIKQSNIDAIFTFLTVNLKSDSSNVKFLDKKILPIGFPLSPNLANIVFRKTDLLLEKLCDMHGVTYTRYADDMLFSSRGIMEKNLLFRKNNNYKKPYIHSDNFLSEIKYLVSIDGFFINHNKTIKSVNTLSLNGYTISGTNFPDIEGKIRLSNKKTKIIEKVIHEININPDDKVTFEKCFKKEFPKPKYEKNRDNFINNLCTIKINQKLLGYRSYLISIIKFNNKFNCISESSEDKYNTLLSKIENVIKKRIK,not soluble
8,MPPADGTSQWLRKTVDSAAVILFSKTTCPYCKKVKDVLAEAKIKHATIELDQLSNGSAIQKCLASFSKIETVPQMFVRGKFIGDSQTVLKYYSNDELAGIVNESKYDYDLIVIGGGSGGLAAGKEAAKYGAKTAVLDYVEPTPIGTTWGLGGTCVNVGCIPKKLMHQAGLLSHALEDAEHFGWSLDRSKISHNWSTMVEGVQSHIGSLNWGYKVALRDNQVTYLNAKGRLISPHEVQITDKNQKVSTITGNKIILATGERPKYPEIPGAVEYGITSDDLFSLPYFPGKTLVIGASYVALECAGFLASLGGDVTVMVRSILLRGFDQQMAEKVGDYMENHGVKFAKLCVPDEIKQLKVVDTENNKPGLLLVKGHYTDGKKFEEEFETVIFAVGREPQLSKVLCETVGVKLDKNGRVVCTDDEQTTVSNVYAIGDINAGKPQLTPVAIQAGRYLARRLFAGATELTDYSNVATTVFTPLEYGACGLSEEDAIEKYGDKDIEVYHSNFKPLEWTVAHREDNVCYMKLVCRKSDNMRVLGLHVLGPNAGEITQGYAVAIKMGATKADFDRTIGIHPTCSETFTTLHVTKKSGVSPIVSGCCG,soluble
9,MGSDKIHHHHHHMKGQLFVICGPSGAGKTSIIKEVLKRLDNVVFSVSCTTRPKRPHEEDGKDYFFITEEEFLKRVERGEFLEWARVHGHLYGTLRSFVESHINEGKDVVLDIDVQGALSVKKKYSNTVFIYVAPPSYADLRERILKRGTEKEADVLVRLENAKWELMFMDEFDYIVVNENLEDAVEMVVSIVRSERAKVTRNQDKIERFKMEVKGWKKL,not soluble
10,DITLSKLAMGGKPTPFGLDESELSNALMLLRDCPQVSLKGFHFHLMSHQLDVERHLALMQRYFQVVKTWQQEFELGELMINLGGGMGINYQNPEQHFPWMEFCDKLEFLIAKEQVQDWTLRFECGRFITAACGYYVMEVLDIKQNLGESYVIARGGTHHFRTPAAQSHDHPFVILKSEQHHEISHPIQHAQATFVGQLCTPKDVLARNQHVAHVDIGDYVVFTLAGAYAWNISHQNFLMHEPPIFHYF,not soluble
11,MVIATIQAEDHSQQSGTQQETTTDTGGGKNVGYIDAGDWLSYAGTPVNIPSSGSYLIEYRVASQNGGGSLTFEEAGGAPVHGTIAIPATGGWQTWTTIQHTVNLSAGSHQFGIKANAGGWNLNWIRINKTH,soluble
12,MAHHHHHHMAVESRSRVTSKLVKAHRAMLNSVTQEDLKVDRLPGADYPNPSKKYSSRTEFRDKTDYIMYNPRPRDEPSSENPVSVSPLLCELAAARSRIHFNPTETTIGIVTCGGICPGLNDVIRSITLTGINVYNVKRVIGFRFGYWGLSKKGSQTAIELHRGRVTNIHHYGGTILGSSRGPQDPKEMVDTLERLGVNILFTVGGDGTQRGALVISQEAKRRGVDISVFGVPKTIDNDLSFSHRTFGFQTAVEKAVQAIRAAYAEAVSANYGVGVVKLMGRDSGFIAAQAAVASAQANICLVPENPISEQEVMSLLERRFCHSRSCVIIVAEGFGQDWGRGSGGYDASGNKKLIDIGVILTEKVKAFLKANKSRYPDSTVKYIDPSYMIRACPPSANDALFCATLATLAVHEAMAGATGCIIAMRHNNYILVPIKVATSVRRVLDLRGQLWRQVREITVDLGSDVRLARKLEIRRELEAINRNRDRLHEELAKL,not soluble
13,MGSDKIHHHHHHVWNDRVELSGKCEYALLALIELARGHSNGEPQQIKQLADRQNIPDRYLEQLLATLRRGGIVRSVRGARGGYLLAREPWQISMQDVVHCIDGTEMQRTEAIDQQSVTIERQILVDINVELCKAVEDVLAAYSLQDLLEIRENRASTDLMYYI,not soluble
